Where no end group is shown, it is not given here.
T1: C2 domain of FVIII (Homo sapiens (Human), UniProt P00451 2192-2351)
T1 construct: Negative control
T1 sequence: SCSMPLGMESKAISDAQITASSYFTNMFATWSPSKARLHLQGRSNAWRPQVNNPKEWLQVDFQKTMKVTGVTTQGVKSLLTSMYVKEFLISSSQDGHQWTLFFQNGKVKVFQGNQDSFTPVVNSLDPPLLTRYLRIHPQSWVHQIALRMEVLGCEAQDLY


The binders below were run against T1, C2 domain of FVIII (assay: BLI (Octet Red), biotinylated peptide on streptavidin sensor).

| binding result | Binder |
| --- | --- |
| no binding | RDERMKLIRNFSPIM (also: biotinylated (position not given here), random peptide of the Octet screening) [SEQ ID NO 7] |
| no binding | EYISWEYC (also: biotinylated (position not given here), random peptide of the Octet screening) [SEQ ID NO 22] |
| no binding | EMMKPNYADLIMRKR (also: biotinylated (position not given here), random peptide of the Octet screening) [SEQ ID NO 10] |
| no binding | LSGKNGPWVKMIMWG (also: biotinylated (position not given here), random peptide of the Octet screening) [SEQ ID NO 11] |
| no binding | QRIKGLHFATSMGYA (also: biotinylated (position not given here), random peptide of the Octet screening) [SEQ ID NO 14] |
| no binding | IADKEYTNIFLKFGSGYVS (also: biotinylated (position not given here), random peptide of the Octet screening) [SEQ ID NO 19] |
| no binding | SPWSWQRQMKKWTPQ (also: biotinylated (position not given here), random peptide of the Octet screening) [SEQ ID NO 15] |
| no binding | NKLTSGDRPGLWFMV (also: biotinylated (position not given here), random peptide of the Octet screening) [SEQ ID NO 6] |
| no binding | TERQMIHKIFALMSG (also: biotinylated (position not given here), random peptide of the Octet screening) [SEQ ID NO 9] |
| no binding | DMFKSVRQLMMSRGR (also: biotinylated (position not given here), random peptide of the Octet screening) [SEQ ID NO 13] |
| no binding | WCPFGFEGKNCELDVTCNIKNGRCEQFCKNSADNKVVCS (cysteine pairing not given here; also: biotinylated (position not given here), random peptide of the Octet screening) [SEQ ID NO 23] |
| no binding | EPLMTMKMIRVMRKL (also: biotinylated (position not given here), random peptide of the Octet screening) [SEQ ID NO 8] |

The remaining lines, values behind:

| Binder | binding result |
| --- | --- |
| AYRPSTSREHWRRHW (also: biotinylated (position not given here), random peptide of the Octet screening) [SEQ ID NO 16] | no binding |
| RMRMYSSLRAWKESA (also: biotinylated (position not given here), random peptide of the Octet screening) [SEQ ID NO 3] | no binding |
| PIRIMIHSLIMNRPT (also: biotinylated (position not given here), random peptide of the Octet screening) [SEQ ID NO 4] | no binding |
| SPSWVRPSIMEWRMN (also: biotinylated (position not given here), random peptide of the Octet screening) [SEQ ID NO 5] | no binding |
| WKHHMRKAIPKYEGK (also: biotinylated (position not given here), random peptide of the Octet screening) [SEQ ID NO 12] | no binding |
| RVPLVDRATCLRSTKFTIYNN (also: biotinylated (position not given here), random peptide of the Octet screening) [SEQ ID NO 20] | no binding |
| KKRDARTNYRYMAYS (also: biotinylated (position not given here), random peptide of the Octet screening) [SEQ ID NO 17] | no binding |
| IADKEYTNIFLKFGVSVLVDRATCLRSTKFTIYNN (also: biotinylated (position not given here), random peptide of the Octet screening) [SEQ ID NO 21] | no binding |
| TTWGMRIRLFERQAR (also: biotinylated (position not given here), random peptide of the Octet screening) [SEQ ID NO 2] | no binding |
| ISRWRLLMGKKSQHD (also: biotinylated (position not given here), random peptide of the Octet screening) [SEQ ID NO 18] | no binding |

The binders below were run against T2, recombinant FIX (UniProt P00740 47-461) in the same assay as above.
T2 construct: Negative control; also called factor IX
T2 sequence (P00740 47-461 limits assumed): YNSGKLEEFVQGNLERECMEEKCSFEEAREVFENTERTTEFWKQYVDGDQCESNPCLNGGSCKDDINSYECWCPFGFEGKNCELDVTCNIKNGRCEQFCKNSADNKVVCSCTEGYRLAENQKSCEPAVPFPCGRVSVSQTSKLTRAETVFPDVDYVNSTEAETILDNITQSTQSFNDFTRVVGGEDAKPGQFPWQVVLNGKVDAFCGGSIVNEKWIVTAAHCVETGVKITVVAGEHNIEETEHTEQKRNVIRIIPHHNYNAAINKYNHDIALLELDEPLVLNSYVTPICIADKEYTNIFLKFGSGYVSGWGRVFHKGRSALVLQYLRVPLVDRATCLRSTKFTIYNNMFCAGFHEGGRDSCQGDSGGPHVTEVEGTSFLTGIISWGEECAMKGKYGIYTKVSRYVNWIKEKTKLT

| binding result | Binder |
| --- | --- |
| no binding | RDERMKLIRNFSPIM (also: biotinylated (position not given here), random peptide of the Octet screening) [SEQ ID NO 7] |
| no binding | EYISWEYC (also: biotinylated (position not given here), random peptide of the Octet screening) [SEQ ID NO 22] |
| no binding | EMMKPNYADLIMRKR (also: biotinylated (position not given here), random peptide of the Octet screening) [SEQ ID NO 10] |
| no binding | LSGKNGPWVKMIMWG (also: biotinylated (position not given here), random peptide of the Octet screening) [SEQ ID NO 11] |
| no binding | QRIKGLHFATSMGYA (also: biotinylated (position not given here), random peptide of the Octet screening) [SEQ ID NO 14] |
| no binding | IADKEYTNIFLKFGSGYVS (also: biotinylated (position not given here), random peptide of the Octet screening) [SEQ ID NO 19] |
| no binding | SPWSWQRQMKKWTPQ (also: biotinylated (position not given here), random peptide of the Octet screening) [SEQ ID NO 15] |
| no binding | NKLTSGDRPGLWFMV (also: biotinylated (position not given here), random peptide of the Octet screening) [SEQ ID NO 6] |
| no binding | TERQMIHKIFALMSG (also: biotinylated (position not given here), random peptide of the Octet screening) [SEQ ID NO 9] |
| no binding | DMFKSVRQLMMSRGR (also: biotinylated (position not given here), random peptide of the Octet screening) [SEQ ID NO 13] |
| no binding | WCPFGFEGKNCELDVTCNIKNGRCEQFCKNSADNKVVCS (cysteine pairing not given here; also: biotinylated (position not given here), random peptide of the Octet screening) [SEQ ID NO 23] |
| no binding | EPLMTMKMIRVMRKL (also: biotinylated (position not given here), random peptide of the Octet screening) [SEQ ID NO 8] |

More lines, now with the values behind:

| Binder | binding result |
| --- | --- |
| AYRPSTSREHWRRHW (also: biotinylated (position not given here), random peptide of the Octet screening) [SEQ ID NO 16] | no binding |
| RMRMYSSLRAWKESA (also: biotinylated (position not given here), random peptide of the Octet screening) [SEQ ID NO 3] | no binding |
| PIRIMIHSLIMNRPT (also: biotinylated (position not given here), random peptide of the Octet screening) [SEQ ID NO 4] | no binding |
| SPSWVRPSIMEWRMN (also: biotinylated (position not given here), random peptide of the Octet screening) [SEQ ID NO 5] | no binding |
| WKHHMRKAIPKYEGK (also: biotinylated (position not given here), random peptide of the Octet screening) [SEQ ID NO 12] | no binding |
| RVPLVDRATCLRSTKFTIYNN (also: biotinylated (position not given here), random peptide of the Octet screening) [SEQ ID NO 20] | no binding |
| KKRDARTNYRYMAYS (also: biotinylated (position not given here), random peptide of the Octet screening) [SEQ ID NO 17] | no binding |
| IADKEYTNIFLKFGVSVLVDRATCLRSTKFTIYNN (also: biotinylated (position not given here), random peptide of the Octet screening) [SEQ ID NO 21] | no binding |
| TTWGMRIRLFERQAR (also: biotinylated (position not given here), random peptide of the Octet screening) [SEQ ID NO 2] | no binding |
| ISRWRLLMGKKSQHD (also: biotinylated (position not given here), random peptide of the Octet screening) [SEQ ID NO 18] | no binding |

Source: patent WO2011095604A1 (dated 2011)
